Results published in patent US20200399389A1 (PHANES THERAPEUTICS, published 2020).

T1: HIS-tagged human CD73 (huCD73-HIS) (human, UniProt P21589 27-547)
T1 sequence: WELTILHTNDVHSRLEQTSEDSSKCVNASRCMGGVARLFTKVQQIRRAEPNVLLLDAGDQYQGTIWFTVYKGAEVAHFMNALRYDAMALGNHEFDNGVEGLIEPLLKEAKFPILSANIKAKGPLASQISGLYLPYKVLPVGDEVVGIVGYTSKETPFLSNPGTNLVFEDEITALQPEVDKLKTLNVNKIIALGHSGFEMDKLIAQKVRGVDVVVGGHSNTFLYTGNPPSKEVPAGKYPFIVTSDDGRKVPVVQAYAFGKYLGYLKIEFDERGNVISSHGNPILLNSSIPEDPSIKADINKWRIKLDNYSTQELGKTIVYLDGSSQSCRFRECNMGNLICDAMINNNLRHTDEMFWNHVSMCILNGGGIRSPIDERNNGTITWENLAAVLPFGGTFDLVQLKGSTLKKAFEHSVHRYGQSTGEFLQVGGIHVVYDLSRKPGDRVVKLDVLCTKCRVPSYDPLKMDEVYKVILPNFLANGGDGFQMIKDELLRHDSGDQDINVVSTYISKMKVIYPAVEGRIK

T2: human CD73 expressed on the surface of cells (human, UniProt P21589 27-549)
T2 sequence: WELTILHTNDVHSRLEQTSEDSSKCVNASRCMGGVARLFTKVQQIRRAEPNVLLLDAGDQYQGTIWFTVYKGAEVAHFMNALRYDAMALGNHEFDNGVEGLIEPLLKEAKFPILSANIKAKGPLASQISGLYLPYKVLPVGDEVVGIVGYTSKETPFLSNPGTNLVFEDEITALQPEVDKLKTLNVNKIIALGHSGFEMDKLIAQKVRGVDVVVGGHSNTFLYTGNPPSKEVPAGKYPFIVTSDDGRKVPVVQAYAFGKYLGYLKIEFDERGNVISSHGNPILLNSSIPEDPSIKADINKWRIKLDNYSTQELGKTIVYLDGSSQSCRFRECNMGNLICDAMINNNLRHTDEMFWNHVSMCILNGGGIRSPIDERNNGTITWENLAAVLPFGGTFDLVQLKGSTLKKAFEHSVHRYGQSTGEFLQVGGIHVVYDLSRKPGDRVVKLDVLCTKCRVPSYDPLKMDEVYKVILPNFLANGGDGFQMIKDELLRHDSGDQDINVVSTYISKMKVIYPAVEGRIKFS


What follows are binders tested against T1, HIS-tagged human CD73 (huCD73-HIS) (assay: cell-based or functional assay).

Binder | IC50 (nM), huCD73 enzymatic assay in solution [nM]
60A9-H1L1 (antibody, V domains shown) VH: EVQLVESGGGLVQPGQSLKLSCKASGYAFSSYWMNWVRQAPGKGLEWMGQIYPGDGDTYYNPSVKGRFTISADTSKNTAYLQLNNLRAEDTAVYYCAREAIYYGNYVFTYWGQGTLVTVSS VL: DIQMTQSPSLLSASLGDRVTITCKSSQSLLNSSNQKNYLAWYQQKPGQSPKLLIYFASTRDSGVPDRFSGSGSGTDFTLTISSLEPEDFATYYCQQHYSTPLTFGGGTKLEIK | 3.34
60A9-H2L3 (antibody, V domains shown) VH: EVQLVESGGGLVQPGGSLRLSCKASGYAFSSYWMNWVRQAPGKGLEWVGQIYPGDGDTYYNPSVKGRFTISADTSKNTLYLQMNSLRAEDTAVYYCAREAIYYGNYVFTYWGQGTLVTVSS VL: DIQMTQSPSLLSASLGDRVTITCKSSQSLLNSSNQKNYLAWYQQKPGQSPKLLVYFASTRDSGVPDRFSGSGSGTDFTLTISSLEPEDFATYYCQQHYSTPLTFGGGTKLEIK | 4.57
60A9-H3L2 (antibody, V domains shown) VH: EVQLVESGGGLVQPGQSLKLSCKASGYAFSSYWMNWVRQAPGKGLEWIGQIYPGDGDTYYNPSVKGRATLSADKSKNTAYLQLNNLRAEDTAVYYCAREAIYYGNYVFTYWGQGTLVTVSS VL: DIVMTQSPSSLSASLGDRVTITCKSSQSLLNSSNQKNYLAWYQQKPGQSPKLLIYFASTRDSGVPDRFSGSGSGTDFTLTISSLEPEDFATYYCQQHYSTPLTFGGGTKLEIK | 4.97
60A9-H1L2 (antibody, V domains shown) VH: EVQLVESGGGLVQPGQSLKLSCKASGYAFSSYWMNWVRQAPGKGLEWMGQIYPGDGDTYYNPSVKGRFTISADTSKNTAYLQLNNLRAEDTAVYYCAREAIYYGNYVFTYWGQGTLVTVSS VL: DIVMTQSPSSLSASLGDRVTITCKSSQSLLNSSNQKNYLAWYQQKPGQSPKLLIYFASTRDSGVPDRFSGSGSGTDFTLTISSLEPEDFATYYCQQHYSTPLTFGGGTKLEIK | 6.17
60A9-H2L2 (antibody, V domains shown) VH: EVQLVESGGGLVQPGGSLRLSCKASGYAFSSYWMNWVRQAPGKGLEWVGQIYPGDGDTYYNPSVKGRFTISADTSKNTLYLQMNSLRAEDTAVYYCAREAIYYGNYVFTYWGQGTLVTVSS VL: DIVMTQSPSSLSASLGDRVTITCKSSQSLLNSSNQKNYLAWYQQKPGQSPKLLIYFASTRDSGVPDRFSGSGSGTDFTLTISSLEPEDFATYYCQQHYSTPLTFGGGTKLEIK | 11.2
60A9-H3L1 (antibody, V domains shown) VH: EVQLVESGGGLVQPGQSLKLSCKASGYAFSSYWMNWVRQAPGKGLEWIGQIYPGDGDTYYNPSVKGRATLSADKSKNTAYLQLNNLRAEDTAVYYCAREAIYYGNYVFTYWGQGTLVTVSS VL: DIQMTQSPSLLSASLGDRVTITCKSSQSLLNSSNQKNYLAWYQQKPGQSPKLLIYFASTRDSGVPDRFSGSGSGTDFTLTISSLEPEDFATYYCQQHYSTPLTFGGGTKLEIK | 2.94
60A9-H2L1 (antibody, V domains shown) VH: EVQLVESGGGLVQPGGSLRLSCKASGYAFSSYWMNWVRQAPGKGLEWVGQIYPGDGDTYYNPSVKGRFTISADTSKNTLYLQMNSLRAEDTAVYYCAREAIYYGNYVFTYWGQGTLVTVSS VL: DIQMTQSPSLLSASLGDRVTITCKSSQSLLNSSNQKNYLAWYQQKPGQSPKLLIYFASTRDSGVPDRFSGSGSGTDFTLTISSLEPEDFATYYCQQHYSTPLTFGGGTKLEIK | 4.13
60A9-H1L3 (antibody, V domains shown) VH: EVQLVESGGGLVQPGQSLKLSCKASGYAFSSYWMNWVRQAPGKGLEWMGQIYPGDGDTYYNPSVKGRFTISADTSKNTAYLQLNNLRAEDTAVYYCAREAIYYGNYVFTYWGQGTLVTVSS VL: DIQMTQSPSLLSASLGDRVTITCKSSQSLLNSSNQKNYLAWYQQKPGQSPKLLVYFASTRDSGVPDRFSGSGSGTDFTLTISSLEPEDFATYYCQQHYSTPLTFGGGTKLEIK | 4.96

Other lines, results leading:

IC50 (nM), huCD73 enzymatic assay in solution [nM] | Binder
2.74 | 60A9-H4L3 (antibody, V domains shown) VH: EVQLVESGGGLVQPGQSLKLSCKASGYAFSSYWMNWVRQAPGKGLEWIGQIYPGDGDTYYSGSVKGRATLSADKSKNTAYLQLNNLRAEDTAVYYCAREAIYYGNYVFTYWGQGTLVTVSS VL: DIQMTQSPSLLSASLGDRVTITCKSSQSLLNSSNQKNYLAWYQQKPGQSPKLLVYFASTRDSGVPDRFSGSGSGTDFTLTISSLEPEDFATYYCQQHYSTPLTFGGGTKLEIK
4.97 | 60A9-H4L2 (antibody, V domains shown) VH: EVQLVESGGGLVQPGQSLKLSCKASGYAFSSYWMNWVRQAPGKGLEWIGQIYPGDGDTYYSGSVKGRATLSADKSKNTAYLQLNNLRAEDTAVYYCAREAIYYGNYVFTYWGQGTLVTVSS VL: DIVMTQSPSSLSASLGDRVTITCKSSQSLLNSSNQKNYLAWYQQKPGQSPKLLIYFASTRDSGVPDRFSGSGSGTDFTLTISSLEPEDFATYYCQQHYSTPLTFGGGTKLEIK
3.1 | 60A9-H4L1 (antibody, V domains shown) VH: EVQLVESGGGLVQPGQSLKLSCKASGYAFSSYWMNWVRQAPGKGLEWIGQIYPGDGDTYYSGSVKGRATLSADKSKNTAYLQLNNLRAEDTAVYYCAREAIYYGNYVFTYWGQGTLVTVSS VL: DIQMTQSPSLLSASLGDRVTITCKSSQSLLNSSNQKNYLAWYQQKPGQSPKLLIYFASTRDSGVPDRFSGSGSGTDFTLTISSLEPEDFATYYCQQHYSTPLTFGGGTKLEIK

Each binder was assayed against T2, human CD73 expressed on the surface of … (assay: cell-based or functional assay).

Binder | IC50 (nM), cell-based CD73 activity assay (A375 cells) [nM]
60A9-H3L4 (antibody, V domains shown) VH: EVQLVESGGGLVQPGQSLKLSCKASGYAFSSYWMNWVRQAPGKGLEWIGQIYPGDGDTYYNPSVKGRATLSADKSKNTAYLQLNNLRAEDTAVYYCAREAIYYGNYVFTYWGQGTLVTVSS VL: DIVMTQSPSLLSASLGDRVTISCKSSQSLLNSSNQKNYLAWYQQKPGQSPKLLVYFASTRDSGVPDRFSGSGSGTDFTLTISSLEPEDFATYFCQQHYSTPLTFGAGTKLEIK | 134
60A9-H2L4 (antibody, V domains shown) VH: EVQLVESGGGLVQPGGSLRLSCKASGYAFSSYWMNWVRQAPGKGLEWVGQIYPGDGDTYYNPSVKGRFTISADTSKNTLYLQMNSLRAEDTAVYYCAREAIYYGNYVFTYWGQGTLVTVSS VL: DIVMTQSPSLLSASLGDRVTISCKSSQSLLNSSNQKNYLAWYQQKPGQSPKLLVYFASTRDSGVPDRFSGSGSGTDFTLTISSLEPEDFATYFCQQHYSTPLTFGAGTKLEIK | 46

Next, values leading:

IC50 (nM), cell-based CD73 activity assay (A375 cells) [nM] | Binder
61 | 60A9-H5L1 (antibody, V domains shown) VH: EVQLVESGGGLVQPGQSLKLSCKASGYAFSSYWMNWVKQRPGKGLEWIGQIYPGDGDTYYSGKFKGRATLSADKSKNTAYLQLNNLRAEDTAVYYCAREAIYYGNYVFTYWGQGTLVTVSS VL: DIQMTQSPSLLSASLGDRVTITCKSSQSLLNSSNQKNYLAWYQQKPGQSPKLLIYFASTRDSGVPDRFSGSGSGTDFTLTISSLEPEDFATYYCQQHYSTPLTFGGGTKLEIK
135 | 60A9-H4L4 (antibody, V domains shown) VH: EVQLVESGGGLVQPGQSLKLSCKASGYAFSSYWMNWVRQAPGKGLEWIGQIYPGDGDTYYSGSVKGRATLSADKSKNTAYLQLNNLRAEDTAVYYCAREAIYYGNYVFTYWGQGTLVTVSS VL: DIVMTQSPSLLSASLGDRVTISCKSSQSLLNSSNQKNYLAWYQQKPGQSPKLLVYFASTRDSGVPDRFSGSGSGTDFTLTISSLEPEDFATYFCQQHYSTPLTFGAGTKLEIK
36.4 | 60A9-H5L3 (antibody, V domains shown) VH: EVQLVESGGGLVQPGQSLKLSCKASGYAFSSYWMNWVKQRPGKGLEWIGQIYPGDGDTYYSGKFKGRATLSADKSKNTAYLQLNNLRAEDTAVYYCAREAIYYGNYVFTYWGQGTLVTVSS VL: DIQMTQSPSLLSASLGDRVTITCKSSQSLLNSSNQKNYLAWYQQKPGQSPKLLVYFASTRDSGVPDRFSGSGSGTDFTLTISSLEPEDFATYYCQQHYSTPLTFGGGTKLEIK
57.3 | 60A9-H5L2 (antibody, V domains shown) VH: EVQLVESGGGLVQPGQSLKLSCKASGYAFSSYWMNWVKQRPGKGLEWIGQIYPGDGDTYYSGKFKGRATLSADKSKNTAYLQLNNLRAEDTAVYYCAREAIYYGNYVFTYWGQGTLVTVSS VL: DIVMTQSPSSLSASLGDRVTITCKSSQSLLNSSNQKNYLAWYQQKPGQSPKLLIYFASTRDSGVPDRFSGSGSGTDFTLTISSLEPEDFATYYCQQHYSTPLTFGGGTKLEIK
